Data: patent US9056102B2, “VEGF-activated trail ligands” (The Regents of the University of California, priority 2005, dated 2015)
“Also recorded” adds a separate entry of the source.

B1: FlkFasL: Fusion of mouse Flk-1 (VEGFR-2) signal sequence and Ig-like domains 1-3, linker, human FasL amino acids 139-281; SEQ ID NO:22 (protein)
chain: MESKALLAVALWFCVETRAASVGLPGDFLHPPKLSTQKDILTILANTTLQITCRGQRDLDWLWPNAQRDSEERVLVTECGGGDSIFCKTLTIPRVVGNDTGAYKCSYRDVDIASTVYVYVRDYRSPFIASVSDQHGIVYITENKNKTVVIPCRGSISNLNVSLCARYPEKRFVPDGNRISWDSEIGFTLPSYMISYAGMVFCEAKINDETYQSIMYIVVVVGYRIYDVILSPPHEIELSAGEKLVLNCTARTELNVGLDFTWHSPPSKSHHKKIVNRDVKPFPGTVAKMFLSTLTIESVTKSDQGEYTCVASSGRMIKRNRTFVRVHTKPFIAFGSARGTSEKKELRKVAHLTGKSNSRSMPLEWEDTYGIVLLSGVKYKKGGLVINETGLYFVYSKVYFRGQSCNNLPLSHKVYMRNSKYPQDLVMMEGKMMSYCTTGQMWARSSYLGAVFNLTSADHLYVNVSELSLVNFEESQTFFGLYKL
B2: R2FasL: FLAG epitope-tagged VEGFR2/FasL fusion protein expressed from pFLAG/R2FasL; apparently the FLAG-tagged form of FlkFasL (protein)
chain: AASVGLPGDFLHPPKLSTQKDILTILANTTLQITCRGQRDLDWLWPNAQRDSEERVLVTECGGGDSIFCKTLTIPRVVGNDTGAYKCSYRDVDIASTVYVYVRDYRSPFIASVSDQHGIVYITENKNKTVVIPCRGSISNLNVSLCARYPEKRFVPDGNRISWDSEIGFTLPSYMISYAGMVFCEAKINDETYQSIMYIVVVVGYRIYDVILSPPHEIELSAGEKLVLNCTARTELNVGLDFTWHSPPSKSHHKKIVNRDVKPFPGTVAKMFLSTLTIESVTKSDQGEYTCVASSGRMIKRNRTFVRVHTKPFIAFGSARGTSEKKELRKVAHLTGKSNSRSMPLEWEDTYGIVLLSGVKYKKGGLVINETGLYFVYSKVYFRGQSCNNLPLSHKVYMRNSKYPQDLVMMEGKMMSYCTTGQMWARSSYLGAVFNLTSADHLYVNVSELSLVNFEESQTFFGLYKL
modifications: left off: small tags and cut ends
notes: apparently the FLAG-tagged form of FlkFasL

Assays:
[1] = test system: T-47D human breast cancer cells; experiment: LDH release cytotoxicity assay in breast cancer cells; assay type: cell-based
Procedure: Apoptosis and cytotoxicity was assayed by three assays: cell counting, FACS analysis of Annexin V positive cells, and LDH (lactate dehydrogenase) release. For cell counting of Jurkat cells, 100 uL of cell suspension was mixed with an equal volume of Trypan blue stain (0.4%), and kept at room temperature for 2 minutes. Live cells were counted using a hemocytometer in triplicate. Mean number of cells/visual field and SEM were calculated using InStat statistical software. For FACS analysis, the Annexin-V-Fluos kit from Roche was used according to the manufacturer's protocol. Briefly, after treatment with FlkFasL or control conditioned medium±VEGF-165 (2 nM, from Peprotech), Jurkat cells were pelleted and resuspended in 100 μL of Annexin-V-Fluos labeling solution (FITC-Annexin V plus propidium iodide) for 15 minutes at room temperature. FACS analysis was performed on a Becton Dickinson FACSCalibur™ using CellQuest Software, with gating to distinguish Annexin V-positive (apoptotic) versus negative cells, and propidium iodide-positive (i.e. necrotic) versus negative cells. The percent of the cell population that was apototic (Annexin-V-positive and propidium iodide-negative) was determined. […] 25 μL of supernatant in triplicate was mixed with LDH detection reagent, and LDH activity quantified by measuring absorbance at 492 nm. Mean and SEM was calculated using InStat statistical software. […]

Jurkat cells [2] = experiment: Induction of apoptosis by FACS analysis of Annexin V-positive/propidium iodide-negative cells; assay type: cell-based, human
Procedure: (§1) Apoptosis and cytotoxicity was assayed by three assays: cell counting, FACS analysis of Annexin V positive cells, and LDH (lactate dehydrogenase) release. For cell counting of Jurkat cells, 100 uL of cell suspension was mixed with an equal volume of Trypan blue stain (0.4%), and kept at room temperature for 2 minutes. Live cells were counted using a hemocytometer in triplicate. Mean number of cells/visual field and SEM were calculated using InStat statistical software. For FACS analysis, the Annexin-V-Fluos kit from Roche was used according to the manufacturer's protocol. […] The percent of the cell population that was apototic (Annexin-V-positive and propidium iodide-negative) was determined. […] 25 μL of supernatant in triplicate was mixed with LDH detection reagent, and LDH activity quantified by measuring absorbance at 492 nm. Mean and SEM was calculated using InStat statistical software.
Jurkat cells were plated in 24-well plates (500,000 cells in 500 μl/well) and were treated with either 1 μL/well or 5 μL/well of conditioned medium obtained from Cos-7 cells transfected either with control plasmid pSV/Neo or plasmid pBJ/FlkFasL. […] Induction of apoptosis was assessed by FACS analysis of FITC-Annexin V-positive/propidium-iodide negative cells.

[3] = test system: T-47D human breast cancer cells; experiment: Cell death in breast cancer cells, photographed 24 hours after treatment; assay type: cell-based; settings: 25 μL conditioned medium plus 2 nM VEGF-165, 24 hours
Procedure: T-47D human breast cancer cells were plated in 24-well plates (500,000 cells in 500 μl/well) and grown to confluence. Cells were treated with 25 μL/well of conditioned medium from Cos-7 cells transfected either with control plasmid pSV/Neo or plasmid FlkFasL. Cells were also treated with 2 nM VEGF-165 or without. Cells were photographed 24 hours after treatment.

Jurkat cells [4] = experiment: Jurkat cell killing, viable cell counting after trypan blue staining; assay type: cell-based, human
Procedure: as §1
Jurkat cells were plated in 24-well plates (500,000 cells in 500 μl/well) and were treated with increasing volumes of conditioned medium obtained from Cos-7 cells transfected either with either control plasmid pSV/Neo or plasmid pBJ/FlkFasL. […] Thirty-two hours later viable cells were counted after trypan blue staining. […]

[5] = test system: U87MG human glioblastoma cells; experiment: LDH release cytotoxicity assay in glioblastoma cells; assay type: cell-based; settings: FLAG-purified R2FasL solution 0-10 μL/well, 24 hours
Procedure: R2FasL solution (0, 0.01, 0.1, 1, or 10 μL), purified by FLAG epitope tag affinity chromatography, was then added to each well (FIG. 17A). In addition, each well received 300 ng of neutralizing anti-VEGF antibody, neutralizing anti-FasL antibody, or control goat Ig (all from R&S Systems). Twenty-four hours later the cells were assayed for cytotoxicity using the LDH release assay (Roche), in which 10 μL of cell supernatant is mixed with 100 μL LDH reaction mixture in a total reaction volume of 200 μL. Cytotoxicity was assayed spectrophotometrically by measuring absorbance at 492 nm.

[6] = test system: Bovine adrenal cortical endothelial cells; experiment: Microvascular endothelial cell cytotoxicity, LDH release assay; assay type: cell-based; settings: 2 μL/well conditioned medium, with 2 nM rhVEGF-165, 24 hours
Procedure: Twenty-two hours later conditioned medium from Cos7 cells transfected with either pFLAG/R2FasL or empty pFLAG vector was added (2 μL/well), in the absence or presence of rhVEGF-165 (final concentration 2 nM). Twenty-four hours later cytotoxicity was assayed using the LDH release assay as described above.

[7] = test system: U373 human glioblastoma cells; experiment: LDH release cytotoxicity assay in Fas-resistant glioblastoma cells; assay type: cell-based; settings: Cos7 conditioned medium with R2FasL, 36 hours; cells resistant to Fas receptor-mediated killing
Procedure: To investigate the specificity of the R2FasL activity on U87MG glioblastoma cells, the cytotoxic effect of R2FasL on the U373 glioblastoma cell line, was analyzed. […] Conditioned medium from Cos7 cells transfected with pFLAG/R2FasL vector was added in the indicated volumes. After 36 more hours cytotoxicity was assayed using the LDH release assay as described herein (FIG. 17D).

[8] = test system: Jurkat E6.1 human T cells; experiment: Jurkat cell viability, resazurin (AlamarBlue) assay; assay type: cell-based; settings: 1 μL/well conditioned medium, rhVEGF-165 or rmVEGF-165 0.001-10 nM, 18 hours
Procedure: Conditioned medium (0.001, 0.01, 0.1, 1, or 10 μL) from Cos7 cells transfected with pFLAG/R1[D2]FasL vector was added in the absence or presence of rhVEGF-165 (final concentration 2 nM). Twenty-two hours later cell viability was assayed using the resazurin assay (AlamarBlue reagent from BioSource). Conversion of AlamarBlue substrate to product by viable cells was determined by adding 20 μL of AlamarBlue to each well and measuring absorbance at 540 nm and […]. Calculation of % conversion of substrate to product was performed according to the manufacturer's protocol.
To investigate which growth factors activate R1[D2]FasL the following experiment was performed. […] All growth factors were used at a final concentration of 10 nM, and were from Peprotech or R&D Systems. Nineteen hours later cell viability was assayed using the resazurin assay as described above.
In a similar experiment, the concentration of the growth factors tested was varied. […] Conditioned medium from Cos7 cells transfected with either pFLAG/R2FasL vector or empty pFLAG vector was added (1 μL/well), in the absence or presence of rhVEGF-165 or rmVEGF-165 at the final concentrations of 0.001, 0.01, 0.1, 1, and 10 nM. Eighteen hours later cell viability was assayed using the resazurin assay as described herein.
To determine the ED50 for hVEGF-165 on R1[D2]FasL the following experiment was performed. […] Conditioned medium from Cos7 cells transfected with pFLAG/R1[D2]FasL vector was added (2 μL/well), in the absence or presence of rhVEGF-165 at 0, 0.01, 0.1, 1, 10, 100, 1,000, or 10,000 nM. Nineteen hours later cell viability was assayed using the resazurin assay as described above.
In a similar experiment the ED50 for hVEGF-165 on R2FasL was determined. […] Conditioned medium from Cos7 cells transfected with pFLAG/R2FasL vector was added in the volumes indicated, in the absence or presence of rhVEGF-165 at the final concentrations of […], 0.2 and 2 nM. Eighteen hours later cell viability was assayed using the resazurin assay. The ED50 for rhVEGF-165 was between 20 pM and 200 pM (FIG. 21B).

[9] = test system: DU145 human prostate cancer cells; experiment: LDH release cytotoxicity assay in prostate cancer cells; assay type: cell-based; settings: Cos7 conditioned medium with R2FasL, 34 hours
Procedure: DU145 human prostate cancer cells were plated in 24-well plates in 500 μL of complete medium with 10% fetal calf serum and allowed to grow for 54 hours without change of medium. Conditioned medium from Cos7 cells transfected with either pFLAG/R2FasL or empty pFLAG vector was added in the indicated volumes. After 34 more hours cytotoxicity was assayed using the LDH release assay as described above.

[10] = test system: Human umbilical vein endothelial cells (HUVEC); experiment: Macrovascular endothelial cell viability, resazurin assay; assay type: cell-based; settings: serum-starved, 10 μL/well conditioned medium, with 2 nM rhVEGF-165, 22 hours
Procedure: R2FasL may be differentially active in tumor endothelial cells (microvascular) and less toxic to normal macrovascular endotherlial cells, such as arteries and veins. […] Twenty-four hours later serum starvation was begun (to sensitize cells to death signals) by withdrawing serum. After fifteen hours of serum starvation cells were treated Cos7 cell conditioned medium containing R2FasL (10 μL/well) in the absence or presence of rh VEGF-165 (final concentration 2 nM). After 22 hours of treatment with R2FasL±rhVEGF cell viability was assayed using the resazurin assay as described herein. No effect of R2FasL+VEGF was seen on these macrovascular endothelial cells (FIG. 20A).

[11] = test system: U87MG human glioblastoma cells; experiment: Cell death in glioblastoma cells, Trypan blue cell counting; assay type: cell-based; settings: Cos7 conditioned medium with R2FasL, 36 hours
Procedure: To investigate if R2FasL induces apoptosis in human glioblastoma the following experiment was performed. […] Twenty-four hours later conditioned medium from Cos7 cells transfected with either pFLAG/R2FasL or empty pFLAG vector was added (FIG. 17B). The concentration of R2FasL was determined separately by quantitative immunoblotting using commercially produced rhsFasL as standard (R&S Systems). After 36 more hours, cells were trypsinized, stained with Trypan blue, and counted on a hemocytometer. Data in FIG. 17B are shown as mean±SEM.

Row | Molecule | cytotoxicity (LDH release) with exogenous VEGF ([1]; 25 μL conditioned medium plus 2 nM VEGF-165, 48 hours) | cytotoxicity (LDH release), endogenous VEGF only ([1]; 25 μL conditioned medium, no exogenous VEGF, 48 hours) | induction of apoptosis (Annexin V-positive/propidium iodide-negative cells) (Jurkat cells [2]; 1 or 5 μL conditioned medium, with or without 2 nM VEGF-165, 60 minutes) | induction of apoptosis in the absence of VEGF (Jurkat cells [2]; conditioned medium in the absence of VEGF) | cell death with exogenous VEGF [3] | killing of Jurkat cells as function of VEGF amount (Jurkat cells [4]; 25 μL/well conditioned medium, varying amounts of VEGF-165, 24 hours) | killing of Jurkat cells (viable cells per hemocytometer field) (Jurkat cells [4]; increasing volumes of Cos-7 conditioned medium, with or without 2 nM VEGF-165, 32 hours) | cytotoxicity (LDH release) [5] | cytotoxicity (LDH release) of R2FasL and VEGF [6] | cytotoxicity (LDH release) [7] | activation by human and mouse VEGF-165 (cell viability) [8] | cytotoxicity (LDH release) [9] | effect of R2FasL+VEGF on cell viability [10] | cell death (cell count) [11]
1 | B1 | drastic increase in cytotoxicity | induced cytotoxicity | induction of apoptosis by FlkFasL in a VEGF-dependent manner | did not increase apoptotic induction | drastic increase in cell death; also recorded: drastically increased cell death | dependent on the amount of VEGF | killing of Jurkat cells by FlkFasL in a VEGF-dependent manner |  |  |  |  |  |  | 
2 | B2 |  |  |  |  |  |  |  | induces cytotoxicity | induce cytotoxicity | does not induce cytotoxicity | human and mouse VEGF-165 similarly activate R2FasL | induces cytotoxicity | No effect | induces cell death
